Laboratory results reported in patent US10647775B2.

Tests used:
[1] = target: PD1-Fc (Homo sapiens (Human)) (UniProt Q15116); test: phage ELISA, target-Fc against non-specific control (IgG1-Fc)
[2] = target: CD47-Fc (Homo sapiens (Human)) (UniProt Q08722); test: as above
[3] = target: recombinant, biotinylated, Human 4-1BB/TNFRSF9/CD137-Fc (human) (UniProt Q07011); test: phage ELISA of rescued clones
IgG Fc (control) = test: phage ELISA of rescued clones on control IgG Fc
[4] = target: recombinant, biotinylated, Human 4-1BB/TNFRSF9/CD137-Fc (human) (UniProt Q07011); test: phage ELISA, CD137-Fc against control IgG Fc
[5] = target: recombinant, biotinylated, Human 4-1BB/TNFRSF9/CD137-Fc (human) (UniProt Q07011); test: phage ELISA, target-Fc against non-specific control (IgG1-Fc)
PD-L1-Fc (human) = PD-L1-Fc (human) (UniProt Q9NZQ7); test: as above
[6] = target: TIM3-Fc (Homo sapiens (Human)) (UniProt Q8TDQ0); test: as above
KIR-Fc = test: as above
[7] = target: DR5-Fc (Homo sapiens (Human)) (UniProt O14763); test: as above
[8] = target: CTLA4-Fc (Homo sapiens (Human)) (UniProt P16410); test: as above
Sequence of CTLA4-Fc (Homo sapiens (Human)) (P16410 37-162 limits assumed): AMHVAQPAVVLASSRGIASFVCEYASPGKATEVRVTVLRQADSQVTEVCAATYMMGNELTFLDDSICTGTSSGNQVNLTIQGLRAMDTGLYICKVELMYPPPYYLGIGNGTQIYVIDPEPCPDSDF

Sequence of recombinant, biotinylated, Human 4-1BB/TNFRSF9/CD137-Fc (human) (Q07011 24-186 limits assumed): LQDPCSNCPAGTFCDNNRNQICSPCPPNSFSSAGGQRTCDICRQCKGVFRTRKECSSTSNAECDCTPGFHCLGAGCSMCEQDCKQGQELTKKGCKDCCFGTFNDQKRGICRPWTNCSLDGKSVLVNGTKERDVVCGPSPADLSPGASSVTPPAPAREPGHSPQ
Sequence of PD-L1-Fc (human) (Q9NZQ7 19-239 limits assumed): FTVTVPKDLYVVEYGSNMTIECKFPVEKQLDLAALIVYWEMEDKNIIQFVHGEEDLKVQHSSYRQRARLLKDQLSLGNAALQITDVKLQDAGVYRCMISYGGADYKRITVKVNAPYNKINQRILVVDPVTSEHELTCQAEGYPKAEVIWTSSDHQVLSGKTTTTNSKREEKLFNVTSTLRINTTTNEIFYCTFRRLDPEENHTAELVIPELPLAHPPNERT
Sequence of CD47-Fc (Homo sapiens (Human)) (Q08722 19-139 limits assumed): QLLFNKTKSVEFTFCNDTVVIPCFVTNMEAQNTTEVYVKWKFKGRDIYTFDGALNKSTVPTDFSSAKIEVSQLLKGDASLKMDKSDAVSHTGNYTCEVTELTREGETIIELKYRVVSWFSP
Sequence of PD1-Fc (Homo sapiens (Human)) (Q15116 25-167 limits assumed): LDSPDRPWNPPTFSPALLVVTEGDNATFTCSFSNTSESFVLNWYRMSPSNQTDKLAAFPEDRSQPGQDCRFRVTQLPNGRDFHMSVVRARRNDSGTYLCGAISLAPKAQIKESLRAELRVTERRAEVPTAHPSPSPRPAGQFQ
Sequence of DR5-Fc (Homo sapiens (Human)) (O14763 56-182 limits assumed): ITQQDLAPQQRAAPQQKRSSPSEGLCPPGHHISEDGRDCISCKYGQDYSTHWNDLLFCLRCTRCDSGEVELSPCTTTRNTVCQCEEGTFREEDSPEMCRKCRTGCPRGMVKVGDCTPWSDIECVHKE

B1: DBDpp of SEQ ID NO: 46 (designed binder)
chain: MGSWTIFKEWLAFIKTDLEALGGSEAELAFFEGWIASFEMELQKYKGKGNPEVEALRKEAAAIRDELQAYRHN
- ELISA ratio (target to background) [1]: 17.1

B2: DBDpp of SEQ ID NO: 24 (designed binder)
chain: MGSWTEFYSRLEAIWVRLQALGGSEAELAMFEDRIAHFEWFLQQYKGKGNPEVEALHEEAIAIRKELAAYRHN
- ELISA ratio (target to background) [2]: 4.58

B3: bb10 (designed binder)
chain: MGSWAEFKQRLAAIKTRLEALGGSEAELAAFLGEIWAFEMELAAYKGKGNPEVEALGREAAAIRMELQAYRHN
- ELISA absorbance (average) [3]: 0.353
- ELISA absorbance (average) (IgG Fc (control)): 0.067
- ELISA ratio (target to background) [4]: 5.27

B4: DBDpp of SEQ ID NO: 21 (designed binder)
chain: MGSWTEFTYRLSAIEWRLWALGGSEAELAWFEQKIAFFEDFLQYYKGKGNPEVEALKHEAGAILNELMAYRHN
- ELISA ratio (target to background) [2]: 12.5

B5: DBDpp of SEQ ID NO: 16 (designed binder)
chain: MGSWFEFNHRLWAINERLYALGGSEAELAAFEKEIAAFESELQAYKGKGNPEVERLRSMAAFIRYKLQAYRHN
- ELISA ratio (target to background) [5]: 11.9

B6: DBDpp of SEQ ID NO: 41 (designed binder)
chain: MGSWFEFQDRLTAINERLSALGGSEAELAAFEKEIAAFESELQAYKGKGNPEVETLRSDAAFIRRFLQAYRHN
- ELISA ratio (target to background) (PD-L1-Fc (human)): 6.01

B7: DBDpp of SEQ ID NO: 45 (designed binder)
chain: MGSWVVFKVDLATIKYILEALGGSEAELAEFEGEIAGFEYSLQFYKGKGNPEVEALRKEAAAIRDELQAYRHN
- ELISA ratio (target to background) [6]: 5.79

B8: DBDpp of SEQ ID NO: 38 (designed binder)
chain: MGSWTEFQSRLDAIHSRLRALGGSEAELAAFEKEIAAFESELQAYKGKGNPEVELLRDDAAFIRHFLQAYRHN
- ELISA ratio (target to background) (PD-L1-Fc (human)): 8.68

B9: DBDpp of SEQ ID NO: 40 (designed binder)
chain: MGSWYEFQNRLHAIHERLNALGGSEAELAAFEKEIAAFESELQAYKGKGNPEVELLRDDAAFIRHFLQAYRHN
- ELISA ratio (target to background) (PD-L1-Fc (human)): 6.34

B10: DBDpp of SEQ ID NO: 43 (designed binder)
chain: MGSWYEFNHRLDAISKRLNALGGSEAELAAFEKEIAAFESELQAYKGKGNPEVEELRGDAAFIRHFLQAYRHN
- ELISA ratio (target to background) (PD-L1-Fc (human)): 2.98

B11: DBDpp of SEQ ID NO: 39 (designed binder)
chain: MGSWQEFDDRLNAIKARLQALGGSEAELAAFEKEIAAFESELQAYKGKGNPEVEDLRDDAAFIRRFLQAYRHN
- ELISA ratio (target to background) (PD-L1-Fc (human)): 7.41

B12: DBDpp of SEQ ID NO: 42 (designed binder)
chain: MGSWYEFESRLDAIHERLHALGGSEAELAAFEKEIAAFESELQAYKGKGNPEVENLRGDAAFIRHFLQAYRHN
- ELISA ratio (target to background) (PD-L1-Fc (human)): 4.88

B13: DBDpp of SEQ ID NO: 37 (designed binder)
chain: MGSWLWFKIFLAEIKYFLEALGGSEAELAAFDFEIHAFHVELFAYKGKGNPEVEVLREVAAEIRWDLQAYRHN
- ELISA ratio (target to background) (KIR-Fc): 4.17

B14: DBDpp of SEQ ID NO: 47 (designed binder)
chain: MGSWVMFKWLLADIKSHLEALGGSEAELAFFEGFIAAFETHLQVYKGKGNPEVEALRKEAAAIRDELQAYRHN
- ELISA ratio (target to background) [1]: 8.13

B15: DBDpp of SEQ ID NO: 26 (designed binder)
chain: MGSWNYFKDHLAWIKNSLEALGGSEAELAHFETAIASFERQLQEYKGKGNPEVEALRKEAAAIRDELQAYRHN
- ELISA ratio (target to background) [7]: 13

B16: DBDpp of SEQ ID NO: 34 (designed binder)
chain: MGSWWLFKDHLAEIKTALEALGGSEAELAHFEMAIAAFEKQLQYYKGKGNPEVEALRKEAAAIRDELQAYRHN
- ELISA ratio (target to background) [7]: 9.75

B17: DBDpp of SEQ ID NO: 27 (designed binder)
chain: MGSWLYFKEHLAHIKAWLEALGGSEAELAHFELAIADFEYHLQEYKGKGNPEVEALRKEAAAIRDELQAYRHN
- ELISA ratio (target to background) [7]: 12.3

B18: DBDpp of SEQ ID NO: 29 (designed binder)
chain: MGSWFYFKQHLAWIKSYLEALGGSEAELAHFERAIAAFEQHLQMYKGKGNPEVEALRKEAAAIRDELQAYRHN
- ELISA ratio (target to background) [7]: 11.8

B19: DBDpp of SEQ ID NO: 30 (designed binder)
chain: MGSWHYFKDHLAEIKGLLEALGGSEAELAHFEMAIADFEHNLQYYKGKGNPEVEALRKEAAAIRDELQAYRHN
- ELISA ratio (target to background) [7]: 11.4

B20: DBDpp of SEQ ID NO: 31 (designed binder)
chain: MGSWHYFKGHLAEIKNHLEALGGSEAELAHFERAIAAFERSLQWYKGKGNPEVEALRKEAAAIRDELQAYRHN
- ELISA ratio (target to background) [7]: 10.8

B21: DBDpp of SEQ ID NO: 20 (designed binder)
chain: MGSWYEFDLRLHAIYDRLVALGGSEAELAAFEKEIAAFESELQAYKGKGNPEVEILRDNAAYIRQMLQAYRHN
- ELISA ratio (target to background) [2]: 14.1

B22: DBDpp of SEQ ID NO: 22 (designed binder)
chain: MGSWAEFDHRLHAIRERLHALGGSEAELAAFEKEIAAFESELQAYKGKGNPEVEILRGNAAYIRALLQAYRHN
- ELISA ratio (target to background) [2]: 11.7

B23: DBDpp of SEQ ID NO: 23 (designed binder)
chain: MGSWTEFVGRLAAIEFRLWALGGSEAELAWFEAHIAFFEDYLQWYKGKGNPEVEALREEAGAIMEELKAYRHN
- ELISA ratio (target to background) [2]: 8.23

B24: DBDpp of SEQ ID NO: 35 (designed binder)
chain: MGSWSEFYNRLDAIESRLLALGGSEAELALFEIQIARFEKVLQAYKGKGNPEVEALRGEARAIFAELYAYRHN
- ELISA ratio (target to background) (KIR-Fc): 8.4

B25: DBDpp of SEQ ID NO: 25 (designed binder)
chain: MGSWHEFHDRLQAIHERLYALGGSEAELAAFEKEIAAFESELQAYKGKGNPEVESLRIAAAHIRQVLQAYRHN
- ELISA ratio (target to background) [8]: 2.95

B26: DBDpp of SEQ ID NO: 36 (designed binder)
chain: MGSWYEFYNRLYAIEIRLYALGGSEAELAAFEKEIAAFESELQAYKGKGNPEVERLRVRAAKIRVILQAYRHN
- ELISA ratio (target to background) (KIR-Fc): 4.24

B27: DBDpp of SEQ ID NO: 28 (designed binder)
chain: MGSWVYFKEHLAWIKTELEALGGSEAELAHFEHSIADFEMSLQFYKGKGNPEVEALRKEAAAIRDELQAYRHN
- ELISA ratio (target to background) [7]: 12.1

B28: DBDpp of SEQ ID NO: 32 (designed binder)
chain: MGSWIYFKEHLAYIKKELEALGGSEAELAHFESAIAVFESTLQYYKGKGNPEVEALRKEAAAIRDELQAYRHN
- ELISA ratio (target to background) [7]: 10.7

B29: DBDpp of SEQ ID NO: 33 (designed binder)
chain: MGSWTYFKEHLAEIKYMLEALGGSEAELAHFEVAIADFEKMLQYYKGKGNPEVEALRKEAAAIRDELQAYRHN
- ELISA ratio (target to background) [7]: 10.3

B30: DBDpp of SEQ ID NO: 44 (designed binder)
chain: MGSWFEFENRLHAIVHRLGALGGSEAELAAFEKEIAAFESELQAYKGKGNPEVETLRADAAFIRHYLQAYRHN
- ELISA ratio (target to background) (PD-L1-Fc (human)): 2.76

B31: DBDpp of SEQ ID NO: 15 (designed binder)
chain: MGSWYEFSMRLWAIDQRLYALGGSEAELAAFEKEIAAFESELQAYKGKGNPEVEALRAKAAYIRWKLQAYRHN
- ELISA ratio (target to background) [5]: 12

B32: DBDpp of SEQ ID NO: 14 (designed binder)
chain: MGSWYEFRHRLWAIDQRLYALGGSEAELAAFEKEIAAFESELQAYKGKGNPEVEGLREAAAFIRAKLQAYRHN
- ELISA ratio (target to background) [5]: 13

B33: DBDpp of SEQ ID NO: 13 (designed binder)
chain: MGSWVEFANRLWAIDQRLFALGGSEAELAAFEKEIAAFESELQAYKGKGNPEVEHLRDQAAFIRHKLQAYRHN
- ELISA ratio (target to background) [5]: 16.1

B34: DBDpp of SEQ ID NO: 18 (designed binder)
chain: MGSWYEFHYRLHAIDQRLYALGGSEAELAAFEKEIAAFESELQAYKGKGNPEVEELRIKAAFIRDRLQAYRHN
- ELISA ratio (target to background) [5]: 7.26

B35: DBDpp of SEQ ID NO: 17 (designed binder)
chain: MGSWYEFGHRLWAIDQRLYALGGSEAELAAFEKEIAAFESELQAYKGKGNPEVEYLRETAAHIRTRLQAYRHN
- ELISA ratio (target to background) [5]: 7.71

B36: DBDpp of SEQ ID NO: 12 (designed binder)
chain: MGSWVEFGHRLWAIDQRLYALGGSEAELAAFEKEIAAFESELQAYKGKGNPEVEKLRQRAAFIRFRLQAYRHN
- ELISA ratio (target to background) [5]: 20.6

B37: DBDpp of SEQ ID NO: 48 (designed binder)
chain: MGSWYAFKDYLADIKGWLEALGGSEAELAFFEIFIARFELELQAYKGKGNPEVEALRKEAAAIRDELQAYRHN
- ELISA ratio (target to background) [1]: 3.29
